These results are taken from US20060277614A1 (INSTITUT NAT L DE LA SANTE ET DE LA RECH MED, published 2006).

Residue numbers refer to the chain shown, from its start. Numbers in names are those of the source.

Experiment [1] concerns the target T1, human prolactin receptor (human, UniProt P16471 25-622).
T1 sequence (looked up): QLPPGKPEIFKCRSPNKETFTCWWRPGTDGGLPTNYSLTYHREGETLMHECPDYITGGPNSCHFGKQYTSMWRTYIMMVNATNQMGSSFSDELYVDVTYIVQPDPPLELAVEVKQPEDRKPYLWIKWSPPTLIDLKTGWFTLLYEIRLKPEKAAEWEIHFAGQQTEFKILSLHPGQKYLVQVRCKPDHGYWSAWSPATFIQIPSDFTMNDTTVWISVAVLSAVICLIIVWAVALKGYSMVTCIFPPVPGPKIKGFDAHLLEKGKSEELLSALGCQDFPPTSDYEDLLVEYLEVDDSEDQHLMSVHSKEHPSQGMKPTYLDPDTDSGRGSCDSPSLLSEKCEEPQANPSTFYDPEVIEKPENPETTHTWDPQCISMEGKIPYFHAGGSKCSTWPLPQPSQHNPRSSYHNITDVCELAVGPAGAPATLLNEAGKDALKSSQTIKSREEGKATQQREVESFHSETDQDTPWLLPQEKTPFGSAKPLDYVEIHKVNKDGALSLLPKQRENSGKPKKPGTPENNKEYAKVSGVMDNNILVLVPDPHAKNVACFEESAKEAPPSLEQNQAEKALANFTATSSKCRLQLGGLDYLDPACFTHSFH
The experiment in a line: competition with [125I]-hPRL on HL5 cell homogenates (human PRLR); mean of three experiments. The procedure: (§1) The affinity of the various hPRL analogs for the human PRLR was estimated by their ability to compete [¹²⁵I]-hPRL for binding to this receptor. Binding affinities were determined using cell homogenates of HL5 cells (expressing the human PRLR), following the procedure previously described (KINET et al., J. Biol. Chem., 274, 26033-26043, 1999).
(§2) Briefly, hPRL was iodinated using IODOGEN, and its specific activity was in the range of 40-50 μCi/μg. Binding assays were performed overnight at room temperature using 150-300 μg cell homogenate protein in the presence of 30,000 cpm [¹²⁵I]-hPRL and increasing concentrations of unlabeled competitor (WT or mutated hPRL).
(§3) The relative binding affinity of hPRL analogs was calculated as the ratio of their IC₅₀ with respect to that of WT hPRL calculated from competition curves (regression in the linear part of sigmoids). Results presented in FIG. 2A are representative of at least three independent experiments performed in duplicate.

Experiment [2] deals with T1, human prolactin receptor. The experiment in a line: cell-based or functional assay.
In experiment [3] the target is T1, human prolactin receptor. As to the kind of experiment: competition with [125I]-hPRL on HL5 cell homogenates (human PRLR). The procedure: as §1, §2, §3
Experiment [4] deals with human prolactin receptor (human) (UniProt P16471). The experiment in a line: competition with [125I]-hPRL on HL5 cell homogenates (human PRLR); ratio of IC50 to that of WT hPRL.
Experiment [5] shares this target. As to the kind of experiment: cell-based or functional assay.
Experiment [6] has as its target T1, human prolactin receptor. The experiment in a line: competition of unlabeled WT hPRL with [125I]-hPRL on HL5 cell homogenates (human PRLR); mean of three experiments. The procedure:
as §1, §2, §3

Broadly, the IC50 is the concentration that inhibits the measured activity by half. Low readings indicate inhibition by little substance, high ones a need for much substance. Turning to “Δ1-9-G129R-hPRL (from UniProt P01236 10-199) (ligand)”, the IC50 with human prolactin receptor [1] is 0.166 µg/mL. In addition, in the experiment with human prolactin receptor [2], the Ba/F3-hPRLR cell proliferation, antagonism of 10 ng/ml WT hPRL, molar excess needed was in the range of 10 to 50 fold. The molecule also gave a fold lower affinity compared to WT hPRL with human prolactin receptor [3] of 10 fold. Turning to “Δ1-9-hPRL (from UniProt P01236 10-199) (ligand)”, the increase in affinity compared to WT hPRL in experiment [4] was 20%. In experiment [5], this molecule yielded an LHRE-luciferase reporter in HL5 cells, EC50 against WT hPRL of 2 fold and an LHRE-luciferase reporter in HL5 cells, maximal response against WT hPRL of 120 to 140%.

“Δ1-10-hPRL (from UniProt P01236 11-199) (ligand)”: in experiment [5], the LHRE-luciferase reporter in HL5 cells, EC50 against WT hPRL came out at 2 fold and the LHRE-luciferase reporter in HL5 cells, maximal response against WT hPRL is 120 to 140%.

B1: Δ1-14-hPRL (ligand, human)
chain: MLRDLFDRAVVLSHYIHNLSSEMFSEFDKRYTHGRGFITKAINSCHTSSLATPEDKEQAQQMNQKDFLSLIVSILRSWNEPLYHLVTEVRGMQEAPEAILSKAVEIEEQTKRLLEGMELIVSQVHPETKENEIYPVWSGLPSLQMADEESRLSAYYNLLHCLRRDSHKIDNYLKLLKCRIIHNNNC
On to B1, for which, in the experiment with human prolactin receptor [2], the “LHRE-luciferase reporter in HL5 cells, EC50 against WT hPRL” value was approximately 3 fold.

B2: Δ1-14-G129R-hPRL (ligand, human)
chain: B1 chain with G116R
notes: range 15-199; Mature-hormone numbering; also called Δ1-14-G129R-PRL; double mutant Δ1-14-G129R-hPRL
For the molecule B2, the IC50 with human prolactin receptor [1] was determined as 0.187 µg/mL. The “fold lower affinity compared to WT hPRL” value with human prolactin receptor [3] is approximately 10 fold.

B3: Δ1-12-hPRL (ligand, human)
chain: MVTLRDLFDRAVVLSHYIHNLSSEMFSEFDKRYTHGRGFITKAINSCHTSSLATPEDKEQAQQMNQKDFLSLIVSILRSWNEPLYHLVTEVRGMQEAPEAILSKAVEIEEQTKRLLEGMELIVSQVHPETKENEIYPVWSGLPSLQMADEESRLSAYYNLLHCLRRDSHKIDNYLKLLKCRIIHNNNC
Take B3: the “LHRE-luciferase reporter in HL5 cells, EC50 against WT hPRL” value with human prolactin receptor [2] is approximately 2 fold.

B4: Δ1-13-hPRL (ligand, human)
chain: MTLRDLFDRAVVLSHYIHNLSSEMFSEFDKRYTHGRGFITKAINSCHTSSLATPEDKEQAQQMNQKDFLSLIVSILRSWNEPLYHLVTEVRGMQEAPEAILSKAVEIEEQTKRLLEGMELIVSQVHPETKENEIYPVWSGLPSLQMADEESRLSAYYNLLHCLRRDSHKIDNYLKLLKCRIIHNNNC
With B4, the “LHRE-luciferase reporter in HL5 cells, EC50 against WT hPRL” value in the experiment with human prolactin receptor [2] was approximately 2 fold.

B5: wild-type human prolactin (ligand, UniProt P01236 29-227, looked up)
chain: LPICPGGAARCQVTLRDLFDRAVVLSHYIHNLSSEMFSEFDKRYTHGRGFITKAINSCHTSSLATPEDKEQAQQMNQKDFLSLIVSILRSWNEPLYHLVTEVRGMQEAPEAILSKAVEIEEQTKRLLEGMELIVSQVHPETKENEIYPVWSGLPSLQMADEESRLSAYYNLLHCLRRDSHKIDNYLKLLKCRIIHNNNC
notes: mature; Monomeric fraction used; Residue numbers (Cys4, Cys11, Gly129) count on the mature hormone; also called WT hPRL; hPRL
Consider B5, for which, in the experiment with human prolactin receptor [6], the IC50 came to 0.018 µg/mL.

B6: G129R-hPRL (ligand, human, UniProt P01236 29-227, looked up)
chain: B5 chain with G129R
notes: mature; also called single mutant G129R-hPRL
In the case of B6, in the experiment with human prolactin receptor [3], the “fold lower affinity compared to WT hPRL” value is approximately 10 fold.

B7: Δ1-11-hPRL (ligand, human)
chain: MQVTLRDLFDRAVVLSHYIHNLSSEMFSEFDKRYTHGRGFITKAINSCHTSSLATPEDKEQAQQMNQKDFLSLIVSILRSWNEPLYHLVTEVRGMQEAPEAILSKAVEIEEQTKRLLEGMELIVSQVHPETKENEIYPVWSGLPSLQMADEESRLSAYYNLLHCLRRDSHKIDNYLKLLKCRIIHNNNC
As for B7, the “LHRE-luciferase reporter in HL5 cells, EC50 against WT hPRL” value with human prolactin receptor [2] is approximately 2 fold.
